Columns and labels:
TGase = molecular target: T1, TGase (UniProt P08587); test: Competition assay: transglutaminase-mediated I-κBα cross-linking with or without synthetic peptides; assay type: biochemical, guinea pig; details: peptide 2 nmol, I-κBα 2 μg, 0.5 mU TGase, 10 mM CaCl2, 10 min at 37° C., SDS-PAGE, Coomassie band intensity
T1 sequence (P08587 1-690): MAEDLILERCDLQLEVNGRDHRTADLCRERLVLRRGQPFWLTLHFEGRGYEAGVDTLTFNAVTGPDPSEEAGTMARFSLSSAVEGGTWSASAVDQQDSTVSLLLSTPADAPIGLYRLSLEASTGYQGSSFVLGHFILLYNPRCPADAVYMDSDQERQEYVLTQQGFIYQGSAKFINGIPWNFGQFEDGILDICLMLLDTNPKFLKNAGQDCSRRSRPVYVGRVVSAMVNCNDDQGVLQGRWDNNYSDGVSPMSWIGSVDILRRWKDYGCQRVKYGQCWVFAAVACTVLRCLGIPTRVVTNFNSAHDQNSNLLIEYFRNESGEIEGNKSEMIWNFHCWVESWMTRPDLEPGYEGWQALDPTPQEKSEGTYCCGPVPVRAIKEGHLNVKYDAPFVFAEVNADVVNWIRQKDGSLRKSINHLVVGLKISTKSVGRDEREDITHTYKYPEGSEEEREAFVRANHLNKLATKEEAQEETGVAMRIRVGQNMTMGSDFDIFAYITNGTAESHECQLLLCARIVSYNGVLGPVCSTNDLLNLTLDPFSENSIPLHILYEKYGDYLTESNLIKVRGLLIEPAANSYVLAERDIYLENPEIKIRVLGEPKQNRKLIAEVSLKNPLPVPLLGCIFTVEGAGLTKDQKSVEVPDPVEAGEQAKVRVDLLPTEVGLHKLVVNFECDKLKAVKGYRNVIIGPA
Experimental: I-κBα (2 μg) was incubated with 0.5 mU TGase in a reaction buffer containing 50 mM Tris pH 7.5 and 10 mM CaCl2, with or without the peptides (2 nmol) of Table 1, so as to observe the cross-linking of I-κBα. The peptides of Table 1 were synthesized in Peptron Inc. After incubation for 10 min at 37° C., the reactants were separated by SDS-PAGE and visualized by Coomassie staining. Bands were measured for intensity using Adobe Photoshop software (FIGS. 7 and 8).

[1] = molecular target: transglutaminase (guinea pig liver, Sigma) (Cavia cutleri, UniProt P08587); details: purified I-κBα with 1 mU transglutaminase, 50 mM Tris-HCl pH 7.5, 10 mM CaCl2, NuPAGE gel; in the presence of EDTA
Experimental: For in vitro polymerization, 10 pg of the purified I-κBα was incubated with 1 mU transglutaminase (guinea pig liver, Sigma) in a reaction mixture containing 50 mM Tris-HCl pH 7.5 and 10 mM CaCl2. Polymerization was analyzed using 4-12% NUPAGE gel electrophoresis (Invitrogen) (FIG. 3).

Row | Compound | inhibition of transglutaminase-mediated I-κBα polymerization (TGase) | inhibition of transglutaminase (I-κBα polymerization) [1]
1 | GVLTQSCTT [I-κBα-derived synthetic peptide, residues 161-169] | inhibit transglutaminase-mediated I-κBα polymerization | 
2 | RIQQQLG [I-κBα-derived synthetic peptide, residues 264-270] | inhibit transglutaminase-mediated I-κBα polymerization | 
3 | LGQLT [I-κBα-derived synthetic peptide, residues 269-273] | inhibit transglutaminase-mediated I-κBα polymerization | 
4 | RIEEQLG [mutant of I-κBα-derived peptide] | inhibit transglutaminase-mediated I-κBα polymerization | 
5 | HSILKATNY [I-κBα-derived synthetic peptide, residues 173-181] | inhibit transglutaminase-mediated I-κBα polymerization | 
6 | RIQEELG [mutant of I-κBα-derived peptide] | inhibit transglutaminase-mediated I-κBα polymerization | 
7 | RDGLKKERLL [I-κBα-derived synthetic peptide, residues 17-26] | inhibit transglutaminase-mediated I-κBα polymerization | 
8 | TRIQQQLGQLTL [I-κBα-derived synthetic peptide, residues 263-274] | inhibit transglutaminase-mediated I-κBα polymerization | 
9 | ENLQMLP [I-κBα-derived synthetic peptide, residues 275-281] | inhibit transglutaminase-mediated I-κBα polymerization | 
10 | RIEQELG [mutant of I-κBα-derived peptide] | inhibit transglutaminase-mediated I-κBα polymerization | 
11 | ILKAT [I-κBα-derived synthetic peptide, residues 175-179] | inhibit transglutaminase-mediated I-κBα polymerization | 
12 | IHEEKALTM [I-κBα-derived synthetic peptide, residues 83-91] | inhibit transglutaminase-mediated I-κBα polymerization | 
13 | O=C(O)CN(CCN(CC(=O)O)CC(=O)O)CC(=O)O [EDTA] |  | inhibited
14 | VFGGQRLTL [I-κBα-derived synthetic peptide, residues 309-317] | inhibit transglutaminase-mediated I-κBα polymerization | 

Reference: patent publication US8754033B2, “Peptides for inhibiting transglutaminase” (National Cancer Center, priority 2005, dated 2014)
